Measured values taken from the supplement of paper PMC12764529.
± gives the half width of the 95% confidence interval.

Test: folding stability dG unfold from trypsin proteolysis; higher = more stable
Procedure, shortened: (§1)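 Unfolding free energy was derived, per protease or combined, against a sequence-predicted unfolded-state K50 and a shared folded-state K50, starting from K50 inferred by Bayesian fitting of sequencing counts. Digestion with trypsin and chymotrypsin was carried out on designed mini-proteins under 80 residues without cysteine in a PA-tagged cDNA display construct. Only designs with AlphaFold2 dimer inter-PAE above 15 were kept.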

Point of comparison: “SAGGSAGGSAGAEELAKALAEELNVEVEVEVVEVEEPEVEVTEERRLPPAPEEVTIEEDESAGGSAGGSAGG [r11_753_TrROS_Hall]”, “folding stability dG unfold” value -0.129 ± 0.074 kcal/mol. Against it:
- SAGGMTFETETITLEFPPEDEEEIRKRAEEIAEKLKKEYEKKGYKVEVEFSYDPETGVLTITIKFEKKSAGG [r13_755_JUSTAS] — higher, 3.57 ± 0.19 kcal/mol
- SAGGSAGGSAGGKEYEVIEVEVNMTIEELKKLFPNVVEIKVEKNENGELKVTIIIKKDKSAGGSAGGSAGGS [r10_764_TrROS_Hall] — higher, 1.92 ± 0.08 kcal/mol
- SAGGSAGGSFRIDPEKIEKVKHHRNPNGGGYHTIRLPGGPVKIPFRGMDPGDMEDQVKNFLKNSAGGSAGGS [r12_585_TrROS] — higher, 0.161 ± 0.11 kcal/mol
- SAGGSAGGSMKTVEITIPFYSTTTDPVPSLGLLKTYLEEPEIKLKISPEEYKKLKKTPILKELSAGGSAGGS [r12_1015_JUSTAS] — within error, -0.229 ± 0.33 kcal/mol
- SAGGSAGGSAGMSVRVIEGDPALAKKFIEEHPDEIVSVEVTPHPETGTYTYVFVFKGPPKSAGGSAGGSAGG [r17_79_TrMRF] — higher, 2.33 ± 0.086 kcal/mol
- SAGKKKTLTLTLGNVTITITYDEDTGTLRIKVTATVTTVTLDKDTKELTTEKKTVTTEIEIPLAPGATLSAG [r5_195_TrROS_Hall] — higher, 2.76 ± 0.18 kcal/mol
- SAGKKTLIIRVKIRVRRKVDGKEEEVELELVIEVEAEEDEEEARRKAEELARKLAEEYNLEIEEVEIFPSAG [r5_497_TrROS_Hall] — higher, 4.18 ± 0.13 kcal/mol
- SAGGSAGGSEKEIEIELPEGAEIVEIDEEKGVITVRVNGKLIEIEIKPVKVEKVEVELPPEEESAGGSAGGS [r12_243_TrROS_Hall] — higher, 2.77 ± 0.19 kcal/mol
- SAGGSAGMVSLTTTTTPVETRTLPDGTVVTLEKTELPDDTVVLTTTTTDPATGEVTTETTTVSLAGSAGGSA [r15_401_JUSTAS] — higher, 0.409 ± 0.026 kcal/mol
- SAGKEKKPPKKVTLTLEIEIEVPEEEEEKAKELAEELEEELRKLGIEKVEVEYDKETKRVRIRVTVVLPSAG [r5_512_TrROS_Hall] — higher, 2.22 ± 0.086 kcal/mol
- SAGTIRIVVPAEELSDEEIEALAEELRKLFPNAKIVRVERRVETLPDGRKRTYVVLEIHIELPPPPEEESAG [r5_835_TrROS_Hall] — higher, 4 ± 0.13 kcal/mol
- SAGGSAGGSAGGMVLVETEPLPDGGYRVLVVFPGTDEVRELYFSSSTTPEQVLDVVLAESAGGSAGGSAGGS [r10_825_TrMRF] — higher, 2.44 ± 0.059 kcal/mol
- PPLKIKMERYPNGMMKIDKIEVPNDGSIKLTLKFPNNGRKIERTIPPNAPPGQEKEIWFPFPNGFYRLKIES [r1_43_TrROS] — within error, 0.0375 ± 0.24 kcal/mol
- SAGGSAGGSAGGDLLRDLPGLELRIETVTVTERYFDEDGELVEEREETVTRIELRRPGEESAGGSAGGSAGG [r7_614_TrROS_Hall] — higher, 0.383 ± 0.2 kcal/mol
- SAGGSAGGSAGGMEFELEDGGYVKVELELSEDGELVARVEFFNENGEPVAEIEVPLEEILSAGGSAGGSAGG [r7_660_TrMRF] — higher, 1.63 ± 0.12 kcal/mol
- SAGGSAGGMRYVTVTVTVPSNGKKYTYTKEIAPDEVFNISEAELAAEFGYPDVVVTVSESPIEDSAGGSAGG [r6_722_JUSTAS] — higher, 2.19 ± 0.074 kcal/mol
- SAGGSAKIKIITENGEELEIEVETKEELEKAVEALKKLLPPDAEIEVEVVEKDGKLIVKIKVKKKPSAGGSA [r15_80_TrROS_Hall] — higher, 1.54 ± 0.13 kcal/mol
- SAGVPLSSVPESEVAEEVEFPKHGLKLLRDTATGKWYLQEGDTATVIPPEEAAKLLAEIKAPKPSPELLSAG [r14_516_JUSTAS] — higher, 1.33 ± 0.073 kcal/mol
- SAEPPWYWIIKIEFPNGKPIVFMMDDPEEARERFEEKLRKEFPDGMKIESIPITPNDMDSPEEALERIKSAG [r14_900_TrROS] — higher, 1.8 ± 0.27 kcal/mol
- SAGGSSMTTKTINLSLPNGVEELTITITTPPDGTYNATFYFPKTGKKTTHNFTSEEEIEKFIEELIKESAGG [r13_857_JUSTAS] — higher, 2.97 ± 0.086 kcal/mol

Test: folding stability dG unfold (combined trypsin and chymotrypsin); higher = more stable
Procedure, shortened: as §1

Point of comparison: “SAGAQPIKLKLVDPNGWEIDDIEIEYSPNGMYMIGIENPDNGRPMHIQYNPDDGKIEIRWPNGKLFEIESAG [r5_809_TrROS]”, “folding stability dG unfold” value 0.841 ± 0.12 kcal/mol. Against it:
- SAGIKPGDPVVIKFNVPPELREKIKEAFEKPGYEYEFHPETGEVTVVAPAENIDELMKLPYIEEIVPGSAGG [r19_212_TrMRF] — within error, 0.817 ± 0.15 kcal/mol
- SAGGSAKFKIVKIEKIEIEENGTIKIKVKLEDGSTFEIEIKVKIIPPPKPKKISLEELSEEERKKLSAGGSA [r15_41_TrROS_Hall] — higher, 1.8 ± 0.13 kcal/mol
- SAGGSAGGSAGKPKVYVKPIVKKGDYVLYLSYYPEEKKIELWVDKFGDKPKRFVKEYPLESAGGSAGGSAGG [r11_738_TrMRF] — higher, 1.13 ± 0.068 kcal/mol
- SAGGMKIKDFEPVRVDENGMYVIDLKYEDPDNGNEYQVEFMIPNPPGNMHPITFTMKSPEDALDEILKSAGG [r13_26_TrROS] — lower, -0.445 ± 0.13 kcal/mol
- SAGGSAGGSAGGMTVERDPEKPVVTVTITDPSGASIVVEIPYETEEEAEAAVKKVIEELASAGGSAGGSAGG [r7_756_JUSTAS] — higher, 1.83 ± 0.13 kcal/mol
- SAGGSAGGSAGSISRTATPDGYLYTFTDSSGKTHTIPSPVPGMPLSEVAERARAAGFSTVESSAGGSAGGSA [r18_83_JUSTAS] — lower, 0.618 ± 0.08 kcal/mol
- SAGGPEVVLTVTVKVPPEMTPEEVAQRLADELRKKYPDLKVEVVSVEYDEETKEVTVTIRVTYAPPPSAGGS [r8_26_TrROS_Hall] — higher, 4.45 ± 0.14 kcal/mol
- SAGGSAGGSAGMIVFTLPDGGLALVLNIEYELEPDEDGNLIIRPRISLSIFPVPADFPILSAGGSAGGSAGG [r17_480_TrMRF] — higher, 4.19 ± 0.12 kcal/mol
- SAGGSAGGSAGKKKLVIEQRPDGLVRIRLPNGKVLEVSREELEELAKELGIDKVEIYPVPSAGGSAGGSAGG [r11_312_TrROS_Hall] — higher, 1.83 ± 0.05 kcal/mol
